B1: antibody 377S (antibody, V domains shown)
VH: QVQLVQSGAEVKKPGSSVKVSCKASGGTFSNYAINWVRQAPGQGLEWMGRTIPFLGLTNYAENFQARVTITADKSTGTSYMQLSSLRSEDTAVYFCAKAATSGWSPFDNWGQGTLVTVSS
VL: EIVLTQSPGTLSLSPGERATLSCRASQSISSSYFGWYQQKPGQAPRLLIYGASRRAAGIPDRFSCSGSGTDFTLTISRLEPEDFGVYYCQQYGSSPTFGQGTKVEIK
B2: antibody 203S (antibody, V domains shown)
VH: QVQLVQSGAEVKKPGSSVKVSCKASGGTFSSYAISWVRQAPGQGLEWLGRILPALGLANYAQKYQDRVKITADKSTSTAYMELSRLGSEDTAVYYCARDRWVGAARRGQYFDYWGQGTQVTVSS
VL: DIQMTQSPATLSASVGDRVTITCRASQSIGTWLAWYQQKPGKAPKLLIYDASSLESGVPPRFSGSGSETEFTLTISSLQPDDFATYYCHQYKSYSYTFGQGTKLEIK
B3: antibody 315S (antibody, V domains shown)
VH: EVQLVESGGGVVQPGRSLRLSCAASGFTFKTYTMHWVRQAPGKGLEWVAVITDDGVNKKYADSVKGRFTISRDNSKNTLYLQMNSLRLEDTAVYYCARSVVVLAAYPLDYWGQGTMVTVSS
VL: DIQMTQSPSSLSASVGDRVTITCRASQTISTYLHWYQQRPGKAPKLLIYAASSLQSGVPSRVSGSGSGTDFTLTITSLQPEDFATYYCLQTYSLPLTFGGGTNVEIK
B4: antibody 338S (antibody, V domains shown)
VH: EVQLVESGGGVVQPGRSLRLSCAASGFTFSQYGMHWVRQAPGKGLECVAVIWFDGSKKYYGDSVKGRFTISRDNSKNTLYLQMNSLRAEDTAVYFCARESLYYYDSGGHYYERGRIDYWGQGTLVTVSS
VL: DIQMTQSPSSLSASVGDRVTITCRASQDISNFLAWFQQKPGKAPKSLIYAASSLLSGVPSKFSGSGSGTDFTLTISSLQPEDFATYYCQQYNSYPPTFGQGTKLEIK
B5: antibody 335S (antibody, V domains shown)
VH: EVQLVESGGGVVQPGRSLRLSCAASGFSFSNYAMHWVRQAPGKGLEWVAVTWYDGSSKYHADSVKGRFTISRDNSKNTLYLQMNSLRAEDTAVYYCARWGMGIVASPGNVLNYYYFMDVWGQGTTVIVSS
VL: SYELTQPPSVSVSPGQTARITCSGNPLPKKHTYWYQQKPGQAPVLMIYKDSERPSRIPERFSGSSSGTTVTLTISGVQAEDEADYYCQSADSTGIVVFGGGTKLTVL
B6: antibody 528S (antibody, V domains shown)
VH: EVQLAESGGGVVQPGRSLRLSCAASGFTFNSYGMHWVRQAPGKGLEWVAVIWDDGSKKYYADSVKGRFTISRDNSKNTLFLQMNSLRAEDTAVYYCARETIMFTFGEVIVSSRDNYYMDVWGKGTTVTVSS
VL: EIVLTQSPATLSLSPGERATLSCRASQSVSNYLAWYQQKPGQAPRLLIYDASTRAIGIPARFSGVGSGTDFTLTISSLEPEDFAVYYCQQRSNWPPLTFGGGTKVEIK
B7: Fab generated from 233S (Fab, V domains shown)
VH: EVQLVESGGGLGQPGGSLRLSCAASGFKFKIFGMNWVRQAPGKGLEWVSYISSRSSIIYYADSVKGRFTISRDDATNSLFLQMNSLRDEDTAMYYCVRDYNLIDFVWGSLFDYWGQGILVTVSS
VL: AIRMTQSPSSLSASTGDSVTITCRASQNIASYLAWYQQIPGKAPKLLIYVASTLQSGVPSRFSGSGSGTDFTLTISSLQSEDFATYYCQQYYRYPPTFGQGTKVEIK
B8: Fab generated from 541S (Fab, V domains shown)
VH: QVQLVQSGAEVKKPGASVKVSCKASGYTFTNYAITWVRQAPGQGLEWMGWISAFNGQINYAQKFQGRVAMTTDTSTSTAYMELRSLRSDDTAVYYCARAPPMWFSGAKFDYWGQGTLVTVSS
VL: QSVLTQPPSVSGTPGQRVTISCSGSSSNIGSNTVNWYQQLPGTAPKLLIYSNDQRPSGVPDRFSGSKSGTSASLAISGLRSEDEADYYCAAWDETLRRVFGGGTRLTVL
notes: also called 541S Fab
B9: Fab generated from 354S (Fab, V domains shown)
VH: QVQLVQSGAEVKKPGASVKVSCKASGYSFASYYIHWVRQAPGQGLEWMGIINPSGGTTSYAQKFQGRVTMTRDTSTSTVYMELSSLGSEDTAVYYCARIVDRVTIYLNGVDNYWGQGTLVTVSS
VL: EIVMTQSPATLSVSPGERVTLSCRASQSVSSNLAWFQQTPGQAPRLLIYGASTRASGVPARFSGSGSGTEFTLTISSLQSEDFAVYYCLQYNNWPPGWKYGFGQGTKLEIK
notes: also called 354S Fab
B10: Fab generated from 241S (Fab, V domains shown)
VH: QVQLVQSGSELKKPGASVKVSCKASGYTFTSYTVNWVRQAPGQGLEWMGWINTNTGNPTYAQGFTGRFVFSSDTSVSTAYLQISDLKAEDTAMYYCARHVAYDLWSGHTVTFDHWGQGTLVTVSS
VL: QSALTQPPSASGSPGQSVTISCTGTSSDVGAYNYVSWYQQHPGKAPKLIIYEVTKRPSGVPDRFSGSKSGNTASLTVSGLQAEDEADYYCSSKAGGKTYVFGTGTKVTVL
B11: Fab generated from 294S (Fab, V domains shown)
VH: QVQLQESGPGLVKPSQTLSLTCTVSGGSISSGGYHWSWIRQHPGKGLEWIGNIYYNGRTYYNPSLKSRVTISVDTSENEFSLKLSSVTAADTAVYYCARDRRRPRIGHDYGMDVWGQGTKVIVSS
VL: DIQMTQSPSSLSASVGDRVTISCRASQSISNFLNWYQQKPGQAPKLLIYTASNLQSGVPSRFSGSGSGTDFTLTISSLQPEDFATYYCQQIYNTGMYSFGQGTKLEIK
notes: also called 294S Fab
B12: Fab generated from 503S (Fab, V domains shown)
VH: QVQLVQSGAEVKKPGASVRVSCKASGYTFTSYYMHWVRQAPGQGLEWMGQINPSGGTTRYERKFQGRITVTRDTSTSTVYLELSSLRSEDTASYFCACLRDKVTYYDLWSGVDSVWGQGTLVTVSS
VL: DIQMTQSPSSLSASVGDRVTITCRASQDISTWLAWYQQKPEKAPKSLIYAASTLETGVPSRFSGSGSGTDFTLTISSLQPEDFATYYCEQYNGFPRTFGQGTKLDIK
notes: also called 503S Fab

One may read the Kd as the equilibrium constant for the complex coming apart. Higher therefore signals a looser complex. As a reminder, the koff is a measure of how fast the partners let go of each other. Read a high koff as a short-lived complex. A word on the kon: it is a measure of how fast the partners come together. High values mean faster complex formation, low ones slower complex formation. By EC50 is commonly meant the concentration at which the effect is half-maximal. A low value points to an effect from little substance.

One assay addresses T1, SUDV GP on pseudotyped lentiviral vector (Sudan virus (SUDV), UniProt Q7T9D9 33-676).
T1 sequence: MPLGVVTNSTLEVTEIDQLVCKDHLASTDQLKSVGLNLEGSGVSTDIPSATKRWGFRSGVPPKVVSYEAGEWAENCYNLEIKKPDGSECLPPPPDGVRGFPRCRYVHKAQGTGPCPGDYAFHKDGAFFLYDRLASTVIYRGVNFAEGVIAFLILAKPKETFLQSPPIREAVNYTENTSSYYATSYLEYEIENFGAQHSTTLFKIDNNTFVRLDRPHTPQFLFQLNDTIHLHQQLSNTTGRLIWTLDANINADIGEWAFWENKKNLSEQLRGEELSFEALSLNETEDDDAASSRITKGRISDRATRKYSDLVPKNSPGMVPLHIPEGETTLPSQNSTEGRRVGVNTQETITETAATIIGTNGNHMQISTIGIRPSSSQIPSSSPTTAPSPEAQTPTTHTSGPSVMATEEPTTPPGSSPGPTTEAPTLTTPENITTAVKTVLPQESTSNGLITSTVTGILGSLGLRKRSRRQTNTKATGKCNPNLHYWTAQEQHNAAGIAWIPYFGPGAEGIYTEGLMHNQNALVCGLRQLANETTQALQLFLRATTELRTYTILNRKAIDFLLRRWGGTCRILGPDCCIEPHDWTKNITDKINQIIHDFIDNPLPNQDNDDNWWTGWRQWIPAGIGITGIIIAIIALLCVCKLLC
Description: cell-based or functional assay.
As for B1, the “IC50, microneutralization of GP-pseudotyped lentiviral vector on HEK293 cells” value (from here on “IC50, microneutralization”) was 0.56 µg/mL.

Take B2: the “IC50, microneutralization” value was 0.04 µg/mL.

As to B3, the “IC50, microneutralization” value amounted to 0.15 µg/mL.

Turning to B4, the “IC50, microneutralization” value was found to be 0.6 µg/mL.

B5: the “IC50, microneutralization” value came to 0.63 µg/mL.

As for B6, the “IC50, microneutralization” value turned out to be 0.58 µg/mL.

The target of a further assay is T2, full-length Sudan GP (GPFL) (Sudan virus (SUDV), UniProt Q7T9D9 33-650).
T2 construct: also called Sudan GPFL; GP(S)FL
T2 sequence: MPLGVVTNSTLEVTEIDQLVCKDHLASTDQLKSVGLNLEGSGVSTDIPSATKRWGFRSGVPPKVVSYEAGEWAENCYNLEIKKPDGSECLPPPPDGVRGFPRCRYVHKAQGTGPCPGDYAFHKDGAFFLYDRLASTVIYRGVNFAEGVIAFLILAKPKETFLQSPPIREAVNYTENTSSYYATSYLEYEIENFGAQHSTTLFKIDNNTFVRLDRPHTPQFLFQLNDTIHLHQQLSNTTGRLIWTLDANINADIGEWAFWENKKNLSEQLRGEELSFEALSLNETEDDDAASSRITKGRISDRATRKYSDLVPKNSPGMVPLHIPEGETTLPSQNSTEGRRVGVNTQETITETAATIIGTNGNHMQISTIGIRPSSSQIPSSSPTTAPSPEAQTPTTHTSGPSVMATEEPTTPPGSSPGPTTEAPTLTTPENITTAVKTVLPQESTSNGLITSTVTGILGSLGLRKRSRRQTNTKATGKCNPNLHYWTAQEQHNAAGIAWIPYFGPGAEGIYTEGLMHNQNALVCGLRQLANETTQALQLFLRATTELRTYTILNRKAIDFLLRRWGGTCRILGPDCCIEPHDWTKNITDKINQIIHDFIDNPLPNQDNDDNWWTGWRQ
Description: BLI, Fab, pH 5.3. Background: Biolayer interferometry detects binding as a change in optical thickness at a sensor tip.
In the case of B7, the affinity, expressed as Kd, was 7.56 nM; the koff turned out to be 0.000358 s⁻¹; the kon is 47300 M⁻¹ s⁻¹.

For the molecule B8, binding was put at a Kd of 44.3 nM, the koff was 0.000322 s⁻¹ and the kon was 7260 M⁻¹ s⁻¹.

Consider B9, for which the Kd came out at 6.12 nM, the koff came to 0.000445 s⁻¹ and the on-rate (kon) worked out at 72700 M⁻¹ s⁻¹.

B10 had a Kd of 6.36 nM, a koff of 0.000433 s⁻¹ and a kon of 68200 M⁻¹ s⁻¹.

The molecule B11 returned a Kd of 2.18 nM, a koff of 0.000377 s⁻¹ and a kon of 173000 M⁻¹ s⁻¹.

For the molecule B12, the Kd was 6.58 nM, the off-rate constant (koff) is 0.000373 s⁻¹ and the kon came to 56700 M⁻¹ s⁻¹.

The next assay has as its target T2, full-length Sudan GP (GPFL). Description: ELISA on coated GP. On the technique in general: In an ELISA, binding on a coated surface is turned into a signal by an enzyme label.
The molecule B1 had an EC50 of 0.14 µg/mL.

B2 displayed an EC50 of 0.5 µg/mL.

B3 showed an EC50 of 0.01 µg/mL.

Consider B4, for which the EC50 amounted to 0.03 µg/mL.

Molecule B5 had a concentration giving a half-maximal response (EC50) of 0.02 µg/mL.

B6 displayed an EC50 of 0.05 µg/mL.

Another assay has the same target. Kind of assay: BLI, Fab, pH 7.4.
In turn, B7 had a Kd of 7.53 nM, a koff of 0.000543 s⁻¹ and a kon of 72100 M⁻¹ s⁻¹.

Take B8: the Kd was determined as 39.5 nM, the koff came out at 0.000482 s⁻¹ and the kon came to 12200 M⁻¹ s⁻¹.

B9 showed a Kd of 8.89 nM, a koff of 0.00076 s⁻¹ and an on-rate (kon) of 85600 M⁻¹ s⁻¹.

B10: binding was put at a Kd of 3.47 nM, the koff was found to be 0.000439 s⁻¹ and the kon was 127000 M⁻¹ s⁻¹.

In the case of B11, the Kd worked out at 4.3 nM, the koff worked out at 0.00135 s⁻¹ and the kon was determined as 314000 M⁻¹ s⁻¹.

In turn, B12 showed a Kd of 19.5 nM, a koff of 0.00111 s⁻¹ and a kon of 56800 M⁻¹ s⁻¹.

Values taken from patent US20260209316A1 (US Dept. of Health and Human Services, published 2026).
